Experiment [1] has as its target T1, CD40 extracellular Domain 2 GST fusion protein (human, UniProt P25942 61-104).
T1 construct: Secreted from insect cells with a GP67 secretion signal; not shown: glutathione S-transferase (GST) fusion partner
T1 chain: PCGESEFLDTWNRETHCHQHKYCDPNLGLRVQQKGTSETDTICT
Put plainly: SDS-PAGE and western blot of GST-domain fusion proteins from insect cell supernatant.

The target in experiment [2] is T2, Recombinant soluble CD40-his (human, UniProt P25942 21-193).
T2 construct: Soluble recombinant CD40 with his tag used in Biacore
Put plainly: Biacore SPR: antibody captured on immobilized protein A, CD40-his flowed at varying concentrations; 1:1 model, global fit.

Experiment [3] addresses T3, CD40 Domain 2 peptide, spot 21 (human).
T3 construct: 10mer on a SPOTs membrane
T3 peptide: KYCDPNLGLR
Put plainly: SPOTs membrane of 10mer peptides, stripped and reprobed.

In experiment [4] the target is T4, CD40 Domain 2 peptide, spot 22 (human).
T4 construct: 10mer on a SPOTs membrane
T4 peptide: YCDPNLGLRV
The description is as above.

The target of experiment [5] is T5, CD40 Domain 2 peptide, spot 20 (human).
T5 construct: 10mer on a SPOTs membrane
T5 peptide: HKYCDPNLGL
The description is as above.

The target in experiment [6] is T6, CD40 Domain 2 10mer peptide, spot 22 (YCDPNLGLRV) (human).
T6 peptide: YCDPNLGLRV
The experiment is described as follows: SPOTs peptide membrane stripped and reprobed with the mAb; spot 22 listed as recognized.

The target in experiment [7] is T7, CD40 Domain 2 10mer peptide, spot 21 (KYCDPNLGLR) (human).
T7 peptide: KYCDPNLGLR
The experiment is described as follows: SPOTs peptide membrane stripped and reprobed with the mAb; spot 21 listed as recognized.

Experiment [8] has as its target T8, CD40 Domain 2 10mer peptide, spot 20 (HKYCDPNLGL) (human).
T8 peptide: HKYCDPNLGL
The experiment is described as follows: SPOTs peptide membrane stripped and reprobed with the mAb; spot 20 listed as recognized.

In experiment [9] the target is T9, CD40 extracellular Domain 3 GST fusion protein (human, UniProt P25942 105-144).
T9 construct: Expressed in insect cells with a GP67 secretion signal; only the domain stood in the assay; not shown: GST fusion partner
T9 chain: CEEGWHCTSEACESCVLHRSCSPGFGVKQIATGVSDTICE
The experiment is described as follows: Western blot, GST fusion of the domain from insect cell supernatant.

Experiment [10] concerns the target T10, CD40 extracellular Domain 4 GST fusion protein (human, UniProt P25942 145-187).
T10 construct: Expressed in insect cells with a GP67 secretion signal; only the domain stood in the assay; not shown: GST fusion partner
T10 chain: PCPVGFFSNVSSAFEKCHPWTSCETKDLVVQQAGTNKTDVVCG
The description is as above.

Experiment [11] deals with T11, CD40 extracellular Domain 1 GST fusion protein (human, UniProt P25942 21-60).
T11 construct: Expressed in insect cells with a GP67 secretion signal; only the domain stood in the assay; not shown: GST fusion partner
T11 chain: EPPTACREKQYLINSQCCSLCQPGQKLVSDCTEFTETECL
The description is as above.

For experiment [12], the target named is T12, CD40 extracellular Domain 2 GST fusion protein (human, UniProt P25942 61-104).
T12 construct: Expressed in insect cells with a GP67 secretion signal; not shown: GST fusion partner
T12 chain: T1 chain
Put plainly: Western blot, GST fusion of Domain 2 from insect cell supernatant.

Experiment [13] addresses T3, CD40 Domain 2 peptide, spot 21. Put plainly: SPOTs membrane of 10mer peptides, antibody at 10 µg/ml.
Experiment [14] concerns the target T4, CD40 Domain 2 peptide, spot 22. Described as above.
Experiment [15] deals with T13, CD40 Domain 2 peptide, spot 19 (human).
T13 construct: 10mer on a SPOTs membrane
T13 peptide: QHKYCDPNLG
The description is as above.

Experiment [16] deals with T14, CD40 Domain 2 peptide, spot 18 (human).
T14 construct: 10mer on a SPOTs membrane
T14 peptide: HQHKYCDPNL
Described as above.

Experiment [17] concerns the target T5, CD40 Domain 2 peptide, spot 20. Described as above.
In experiment [18] the target is T2, Recombinant soluble CD40-his. The experiment is described as follows: Biacore SPR, CD40-his over captured antibody.
The target of experiment [19] is human CD40 on the cell surface (human, UniProt P25942 20-277). Put plainly: cell-based or functional assay.
Experiment [20] has as its target T8, CD40 Domain 2 10mer peptide, spot 20 …. Put plainly: SPOTs peptide membrane probed with the mAb at 10 µg/ml, anti-human IgG beta-galactosidase secondary; spot 20 listed as positive.
Experiment [21] has as its target T15, CD40 Domain 2 10mer peptide, spot 19 (QHKYCDPNLG) (human).
T15 peptide: QHKYCDPNLG
Put plainly: SPOTs peptide membrane probed with the mAb at 10 µg/ml, anti-human IgG beta-galactosidase secondary; spot 19 listed as positive.

Experiment [22] addresses T16, CD40 Domain 2 10mer peptide, spot 18 (HQHKYCDPNL) (human).
T16 peptide: HQHKYCDPNL
Put plainly: SPOTs peptide membrane probed with the mAb at 10 µg/ml, anti-human IgG beta-galactosidase secondary; spot 18 listed as positive.

Experiment [23] has as its target T6, CD40 Domain 2 10mer peptide, spot 22 …. Put plainly: SPOTs peptide membrane probed with the mAb at 10 µg/ml, anti-human IgG beta-galactosidase secondary; spot 22 listed as positive.
Experiment [24] has as its target T7, CD40 Domain 2 10mer peptide, spot 21 …. Put plainly: SPOTs peptide membrane probed with the mAb at 10 µg/ml, anti-human IgG beta-galactosidase secondary; spot 21 listed as positive.

Sequence of human CD40 on the cell surface (P25942 20-277): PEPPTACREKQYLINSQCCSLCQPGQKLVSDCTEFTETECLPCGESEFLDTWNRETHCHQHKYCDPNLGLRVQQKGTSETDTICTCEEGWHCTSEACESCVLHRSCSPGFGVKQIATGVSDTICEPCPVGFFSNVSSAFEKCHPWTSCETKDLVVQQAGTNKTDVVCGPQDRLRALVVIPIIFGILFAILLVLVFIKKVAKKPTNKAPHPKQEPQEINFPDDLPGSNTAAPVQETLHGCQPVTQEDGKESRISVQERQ

B1: CHIR-5.9 (antibody, human IgG1, kappa)
heavy: not shown
light: AIVMTQPPLSSPVTLGQPASISCRSSQSLVHSDGNTYLNWLQQRPGQPPRLLIYKFFRRLSGVPDRFSGSGAGTDFTLKISRVEAEDVGVYYCMQVTQFPHTFGQGTRLEIKRTVAAPSVFIFPPSDEQLKSGTASVVCLLNNFYPREAKVQWKVDNALQSGNSQESVTEQDSKDSTYSLSSTLTLSKADYEKHKVYACEVTHQGLSSPVTKSFNRGEC
notes: also called mAb CHIR-5.9
On to B1, for which the binding result in [1], in [3], in experiment [4] and in experiment [5] was “binds” each time. Further, the Kd in [2] is 12.2 nM. Moreover, in experiment [2], the koff is 0.015 s⁻¹. In experiment [2], the kon stood at 1.24e+06 M⁻¹ s⁻¹.

B2: anti-CD40 monoclonal antibody CHIR-5.9 (antibody, human IgG1, kappa)
light: B1 light
heavy: not shown
notes: Fully human IgG1 kappa; also called mAb CHIR-5.9; CHIP-5.9
As for B2, the binding result in experiment [6], in experiment [7] and in [8] was “binds” each time.

B3: monoclonal antibody CHIR-5.9 (antibody, human IgG1, kappa)
light: B1 light
heavy: not shown
notes: Fully human IgG1 kappa anti-human CD40 mAb; Leader residues (1-20 light, 1-19 heavy) left out as stated; also called mAb CHIR-5.9
Consider B3, for which the binding result in [9] is recorded as “no binding”; in experiment [10], “no binding”; in experiment [11], “no binding”; in [12], “binds”.

B4: CHIR-12.12 (antibody, human IgG1, kappa)
heavy: not shown
light: DIVMTQSPLSLTVTPGEPASISCRSSQSLLYSNGYNYLDWYLQKPGQSPQVLISLGSNRASGVPDRFSGSGSGTDFTLKISRVEAEDVGVYYCMQARQTPFTFGPGTKVDIRRTVAAPSVFIFPPSDEQLKSGTASVVCLLNNFYPREAKVQWKVDNALQSGNSQESVTEQDSKDSTYSLSSTLTLSKADYEKHKVYACEVTHQGLSSPVTKSFNRGEC
On to B4, for which the binding result in [13], in experiment [14], in [15], in experiment [16], in experiment [17] and in experiment [1] was “binds” throughout. Besides, in experiment [18], the “fold difference in the off rate against CHIR-5.9” value came to 121 fold. Besides, the “fold higher affinity against CHIR-5.9” value in experiment [18] worked out at 24 fold. In addition, in [19], the “average IC50 of inhibition of CD40 ligand-induced lymphocyte proliferation, lymphocytes from 6 donors” value came to 0.047 nM. For the same molecule, in [2], the Kd worked out at 0.51 nM. The koff in [2] is 0.000124 s⁻¹. For the same molecule, the kon in experiment [2] was found to be 241000 M⁻¹ s⁻¹.

B5: anti-CD40 monoclonal antibody CHIR-12.12 (antibody, human IgG1, kappa)
light: B4 light
heavy: not shown
notes: Fully human IgG1 kappa
Turning to B5, the binding result in [20], in experiment [21], in experiment [22], in [23] and in experiment [24] was “binds” in each case.

B6: monoclonal antibody CHIR-12.12 (antibody, human IgG1, kappa)
light: B4 light
heavy: not shown
notes: Fully human IgG1 kappa anti-human CD40 mAb; Leader residues (1-20 light, 1-19 heavy) left out as stated
Turning to B6, the binding result was “no binding” in experiment [9], “no binding” in [10], “no binding” in experiment [11] and “binds” in experiment [12].

The values above are taken from patent EP2149585A1 (Novartis Vaccines and Diagnostics, Inc., dated 2010).
